Substrate in the series: OC[C@H]1O[C@@](CO)(O[C@H]2O[C@H](CO)[C@@H](O)[C@H](O)[C@H]2O)[C@@H](O)[C@@H]1O
Description: cells, lysate or membranes. It counts as cell-based, Dioscorea cayenensis. As to conditions: PBS pH 5.5, 30 °C, labelled compound, methods print a final sucrose concentration of 100 mM, at odds with a μM Km.

From article PMC12193089, “Genome-Wide Identification, Plasma Membrane Localization, and Functional Validation of the SUT Gene Family in Yam (Dioscorea cayennensis subsp. rotundata)” (International Journal of Molecular Sciences, 2025) come the findings set out here.

B1: DrSUT1 (Dioscorea cayenensis subsp. rotundata) (protein)
chain: MDAVSIRVPYRNLKEAELELEMGHLNGDPSGEIHDLGSRPSGGLPPSFPSASPSSPDEYGSSDASHRSQPRSSMKTLVLSCIVAAGVQFGWALQLSLLTPYIQTLGIEHAFSSFIWLCGPITGFIVQPCVGIWSDKCTLKLGRRRPFILAGSLMISFAVILIGFAADIGYLLGDTDQDCRSYKGPRWRAAAIFVIGFWMLDLANNTVQGPARALLADLSGPDQCNSANAIFCSWMALGNILGFSSGANGNWHRWFPFLTTKACCEACGNLKAAFLVAVIFLMFCTFVTLYFAKEVPLEAKPTQQFSDGAPLLNDKQQHGHRGSPTNSPKLENGEKLSVDLMADKASSRNPSNFDRNAKNDEMEALSDGPGAVLVKLLTSLRHLPPGMYSVLLVMALTWSSWFPFFLFDTDWMGREVYRGDPSGTESEIGSYQKGVRDGAFGLLLNSVVLLVASFLIDPICRRMGARMVWAMSNFIVFICMAATTIISLWSINEHLTGIQHVVGANKAVRVGALVIFSLLGFPLAITYSVPFSVTAELTADSGGGQGLATGVLNLAIVIPQMVVALGAGPWDALFGGGNIPAFALASAFALAASFLAFKRLPTLSGSYSSVGFHGFG
notes: no tag told
B1: the Km worked out at 76.69 µM.
